The values that follow come from article PMC6445123 (Scientific Reports, 2019).

Positions count from the first letter of the chain named. Names and notes keep the numbering of the source.

Series [1] deals with T1, recombinant active Casp6 (Casp6-WT) (Homo sapiens, UniProt P55212, INS179NQTEKLDTNITEVD).
T1 construct: generating mainly large subunit with a linker (LS-L), small subunit (SS), and a minor amount of large subunit (LS); His (C); made in house; host or cells: E. coli BL21(DE3)pLysS
T1 sequence (P55212 24-193 limits assumed): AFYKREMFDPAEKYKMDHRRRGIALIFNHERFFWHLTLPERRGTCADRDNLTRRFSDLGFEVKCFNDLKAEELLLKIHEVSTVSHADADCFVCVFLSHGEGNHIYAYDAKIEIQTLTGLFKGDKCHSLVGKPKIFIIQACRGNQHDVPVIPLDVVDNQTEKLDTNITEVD
T1 sequence (P55212 194-293 limits assumed): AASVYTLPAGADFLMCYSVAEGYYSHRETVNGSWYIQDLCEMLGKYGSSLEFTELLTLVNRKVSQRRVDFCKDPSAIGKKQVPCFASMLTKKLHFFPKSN
Put plainly: Fluorescence-based Ac-VEID-AFC cleavage assay (Casp6 activity, IC50 determination). The series is classed as biochemical. Conditions: 10 µM Ac-VEID-AFC; for % Inhibition with 100 µM compound (fluorescence assay): 20 nM Casp6, relative to 1% DMSO control; for IC50: fluorescence assay, 20 nM Casp6 active sites, read-out: IC50. Here is the method:
(§1) To assess the potency of in silico hits, a fluorescence-based Ac-VEID-AFC cleavage assay was used to measure recombinant active Casp6 reaction rate in the absence or presence of 100 µM concentration of compounds. A 30% inhibition cut off was arbitrarily chosen for further investigation of putative inhibitors. […] AFC signal interference by compound intrinsic fluorescence was ruled out (Fig. S4). Casp6 inhibition was confirmed for seven compounds (C7, C13, C14, S2, S10, S11 and S13) using a colorimetric Ac-VEID-pNA cleavage assay (Table 2, Fig. S3).
(§2) Casp6 active sites were quantified using zVAD-FMK (N-benzyloxycarbonyl-Val-Ala-Asp-(O-methyl)-fluoromethylketone, MP Biomedicals, Santa Ana, CA, USA)[51],[64]. Casp6 activity was measured in Stennicke’s buffer (SB: 20 mM piperazine-N,N′-bis-(2-ethanesulfonic acid) pH 7.2, 100 mM NaCl, 10 mM DTT, 1 mM EDTA, 0.1% 3-[(3-cholamidopropyl)-dimethylammonio]-2-hydroxy-1-propanesulfonic acid, 10% sucrose)[65] using 40 µM Ac-VEID-AFC (Ac-Val-Glu-Ile-Asp-7-Amino-4-trifluoromethylcoumarin, Enzo Life Sciences, Farmingdale, NY, USA)[64] and 10-250 nM active site titrated Casp6. Reactions were initiated by Ac-VEID-AFC addition and followed for 20 min at 37 °C in a black clear bottom 96-well microplate (Costar, Corning, NY, USA) in Synergy H4 Hybrid instrument (BioTek, Winooski, VT, USA) with excitation/emission at 380/505 nm. Released AFC was calculated from AFC standard curve (0-25 µM). Casp6 VEIDase activity (released pmol AFC/min) was calculated from the initial linear reaction part. Ac-VEID-AFC hydrolysis initial velocities were measured with 10 nM active-site titrated Casp6 and […] Ac-VEID-AFC. Initial velocities v versus substrate concentration [S] were fit to a rectangular hyperbola using Michaelis-Menten equation in GraphPad Prism 5 (GraphPad Software, La Jolla, CA, USA).
(§3) In fluorescence-based Casp6 activity assay, 10 µM Ac-VEID-AFC was added to 20 nM Casp6 in SB with 100 μM compound and 1% dimethyl sulfoxide (DMSO), and reaction rate was measured for 20 min at 37 °C as above. Compound potency was calculated by normalising Ac-VEID-AFC cleavage rate to 1% DMSO control. In colorimetric Casp6 activity assay, 200 µM Ac-VEID-pNA (N-acetyl-Val-Glu-Ile-Asp-p-nitroanilide, Enzo Life Sciences) was added to 200 nM Casp6 in SB with 100 μM compound, and Ac-VEID-pNA cleavage rate was measured at 37 °C for 30 min in clear 96-well plate (Sartstedt, Nümbrecht, Germany) using Synergy H4 plate reader at 405 nm. Absorbance was converted to the released pNA amount based on a standard curve of 0–250 µM pNA. Cleavage rates were calculated from the linear assay phase and were normalised to 1% DMSO control. In Casp6-C163A cleavage assay, 0.5 ng/µl Casp6-WT was preincubated with 100 µM inhibitor, 5 µM Q-VD-OPh or 1% DMSO in SB (30 min, RT), followed by transfer on ice, addition of 0.5 µg/µl Casp6-C163A, and incubation (37 °C, 5, 10 and 15 min). Reactions were stopped by adding SDS-PAGE sample buffer (62.5 mM Tris pH 6.8, 2% SDS, 0.1 M DTT, 0.01% Bromphenol Blue, 10% glycerol) and heating (5 min, 95 °C). Samples (2 µl) were analysed on 15% SDS-PAGE gels, proteins were stained with Coomassie blue, and gels were de-stained with 10% acetic acid. The intensities of protein bands were quantified from scanned gels using ImageJ. The band intensity of Casp6-C163A without a prodomain was plotted against the time and the Casp6-C163A cleavage rates were calculated from the slopes of linear plots. The % activity of Casp6-WT in the presence of inhibitors was calculated relative to DMSO control.
IC50 values were determined against 20 nM Casp6 active sites in fluorescence-based Casp6 activity assay with 10 µM Ac-VEID-AFC and 1 nM-500 µM inhibitor. IC50 was calculated with GraphPad Prism 5 by a nonlinear regression fit for log inhibitor vs relative Casp6 activity (% DMSO control) using a Hill slope of – 1, and top and bottom constraints of 100 and 0, respectively.

The target of another series is T2, recombinant active Casp6 (Homo sapiens, UniProt P55212, INS179NQTEKLDTNITEVD).
T2 construct: generating mainly large subunit with a linker (LS-L), small subunit (SS), and a minor amount of large subunit (LS); His (C); made in house; host or cells: E. coli BL21(DE3)pLysS
T2 sequence (P55212 24-193 limits assumed): T1 sequence (P55212 24-193 limits assumed)
T2 sequence (P55212 194-293 limits assumed): T1 sequence (P55212 194-293 limits assumed)
The series is described as follows: Colorimetric Ac-VEID-pNA cleavage assay. The series is classed as biochemical. Conditions: 200 µM Ac-VEID-pNA, 200 nM Casp6. Here is the method:
as §1, §3

A short description of series [2]: Ac-VEID-AFC hydrolysis kinetics of recombinant Casp6 variants (Michaelis-Menten). Conditions: Ac-VEID-AFC hydrolysis, mean ± SD. The series is classed as biochemical, human.
Excerpt: In this study, we investigated how naturally occurring rare missense variants of human CASP6 affect Casp6 activity and structure. […] A34, E35, A109, and T182 are not conserved in 12 human caspases and in Casp6 from different species (Fig. 1a,b). Recombinant Casp6-WT and the four variants were expressed in E. coli, purified, and active site titrated (Fig. S2) for functional analyses. Like Casp6-WT, Casp6 variants, underwent complete self-processing at TETD23, and TEVD193 sites, and slight self-cleavage at the DVVD179 site, generating mainly large subunit with a linker (LS-L), small subunit (SS), and a minor amount of large subunit (LS) (Fig. 1c,d).
as §2

Series [3] deals with the molecule itself. Put plainly: crystal structure; apo, fully processed Casp6 variant; crystals from 100 mM sodium acetate pH 4.6, 2 M sodium chloride, hanging drop vapour diffusion at 22 °C.
Series [4] deals with T3, Casp6-E35K large subunit with linker (LS-L) (human, UniProt P55212 24-193, E35K).
T3 construct: human Caspase-6, large subunit with linker (LS-L) left after complete self-processing at TETD23 and TEVD193; a minor amount is also cut at DVVD179 (LS); rare natural SNP variant E35K; source: E. coli BL21(DE3)pLysS, self-processed from full-length Casp6-E35K, purified
T3 sequence (looked up): T1 sequence (P55212 24-193 limits assumed) with E12K
The description is as above. Conditions: both partners purified.

One may read the IC50 as the point on the concentration scale where inhibition reaches its midpoint. For the molecule `O=C(Cn1cc(/C=C2/C(=O)NC(=O)N(Cc3ccco3)C2=O)c2ccccc21)NCC1CCCO1` (stereo not shown) [Compound S10], in series [1], the “% Inhibition with 100 µM compound (fluorescence assay)” value (“% Inhibition … (fluorescence assay)” below) is listed as 59.7 ± 3.8% and the IC50 came to 30.2 ± 6.8 µM. At recombinant active Casp6, the “% Inhibition with 100 µM compound (colorimetric assay)” value (“% Inhibition … (colorimetric assay)” for short) amounted to 42.6 ± 3.4%.

As for `Nc1nc2c(s1)C(c1ccc(OCc3cccc(F)c3)cc1)CC(=O)N2` (stereo not shown) [Compound S11], in series [1], the “% Inhibition … (fluorescence assay)” value came to 30.0 ± 6.0% and the IC50 turned out to be 289 ± 60.9 µM. Besides, the “% Inhibition … (colorimetric assay)” value at recombinant active Casp6 is recorded as 56.3 ± 2.3%.

Take `Cc1nn(-c2ccccc2)c2c1C(c1cccc(OCc3ccccc3)c1)C(C#N)=C(N)O2` (stereo not shown) [Compound S13]: in series [1], the “% Inhibition … (fluorescence assay)” value amounted to 33.8 ± 12.1% and the half-inhibitory concentration (IC50) amounted to 159 ± 27.7 µM. On recombinant active Casp6, the “% Inhibition … (colorimetric assay)” value is reported as 41.9 ± 8.2%.

B1: Casp6-A34E: recombinant rare natural human Casp6 missense variant A34E (protein, UniProt P55212 1-293, looked up, variant A34E)
chain: MSSASGLRRGHPAGGEENMTETDAFYKREMFDPEEKYKMDHRRRGIALIFNHERFFWHLTLPERRGTCADRDNLTRRFSDLGFEVKCFNDLKAEELLLKIHEVSTVSHADADCFVCVFLSHGEGNHIYAYDAKIEIQTLTGLFKGDKCHSLVGKPKIFIIQACRGNQHDVPVIPLDVVDNQTEKLDTNITEVDAASVYTLPAGADFLMCYSVAEGYYSHRETVNGSWYIQDLCEMLGKYGSSLEFTELLTLVNRKVSQRRVDFCKDPSAIGKKQVPCFASMLTKKLHFFPKSN
As usually defined, the Km is the concentration of substrate that gives half-maximal velocity. The term kcat denotes the number of substrate molecules converted per active site and unit of time at saturation. In the case of B1, in series [2], the Michaelis-Menten constant (Km) is 22.7 ± 0.8 µM and the kcat was found to be 2.04 ± 0.10 s⁻¹.

B2: Casp6-T182S: recombinant rare natural human Casp6 missense variant T182S (protein, UniProt P55212 1-293, looked up, variant T182S)
chain: B1 chain with E34A, T182S
Turning to B2, in series [2], the Km was found to be 33.3 ± 1.2 µM and the kcat turned out to be 2.42 ± 0.12 s⁻¹.

B3: Casp6-K284A: Casp6 K284A alanine mutant from full-length construct, partially self-processed (protein, UniProt P55212 1-293, looked up, variant K284A)
chain: B1 chain with E34A, K284A
modifications: full-length
notes: Casp6 K284A alanine mutant from full-length construct, partially self-processed
As to B3, in series [2], the Km turned out to be 32.6 ± 10.8 µM and the kcat stood at 2.0 ± 1.5 s⁻¹.

B4: Casp6-E35K, fully processed (mature, apo) (complex, human)
chain 1: T1 sequence (P55212 24-193 limits assumed) with E12K
chain 2: T1 sequence (P55212 194-293 limits assumed)
notes: human Caspase-6, large subunit with linker (LS-L) left after complete self-processing at TETD23 and TEVD193; a minor amount is also cut at DVVD179 (LS); rare natural SNP variant E35K; human Caspase-6, small subunit (SS) left after self-processing at TEVD193; One protomer (LS-L plus SS); two protomers form the dimer seen in the crystal; That the His tag sits on the small subunit is surmised from …
Turning to B4, the binding result in series [3] is on record as “binds”.

B5: Casp6-A109T: recombinant rare natural human Casp6 missense variant A109T (protein)
chain 1: T1 sequence (P55212 24-193 limits assumed) with A86T
chain 2: T1 sequence (P55212 194-293 limits assumed)
modifications: left off: His (from the plasmid name pET23b-Casp6-His), end not stated, state not stated
With B5, in series [2], the Km amounted to 34.5 ± 1.8 µM and the kcat was determined as 2.51 ± 0.16 s⁻¹.

B6: Casp6 small subunit (SS) from self-processed Casp6 (domain or fragment, human, UniProt P55212 194-293, looked up)
chain: T1 sequence (P55212 194-293 limits assumed)
notes: human Caspase-6, small subunit (SS) left after self-processing at TEVD193; That the His tag sits on this chain is surmised from the plasmid's name; source: E. coli BL21(DE3)pLysS, self-processed from full-length Casp6 variant, purified
As to B6, in series [4], the binding result was “binds”.
